Assay results from patent US20220348668A1 (UNIVERSITE DE FRANCHE COMTE, published 2022).

T1: CD123 (protein in solution in the Octet affinity assay) (human, UniProt P26951 19-305, limits assumed)
T1 construct: also called IL-3Rα; Interleukine-3 Receptor alpha
T1 sequence (looked up): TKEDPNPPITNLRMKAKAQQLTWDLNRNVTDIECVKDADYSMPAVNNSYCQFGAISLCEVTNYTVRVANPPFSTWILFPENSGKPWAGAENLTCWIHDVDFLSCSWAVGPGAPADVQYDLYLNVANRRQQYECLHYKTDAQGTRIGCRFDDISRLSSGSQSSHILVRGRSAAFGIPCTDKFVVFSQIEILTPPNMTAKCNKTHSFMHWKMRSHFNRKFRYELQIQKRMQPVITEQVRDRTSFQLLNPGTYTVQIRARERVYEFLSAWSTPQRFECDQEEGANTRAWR


Columns and labels:
[1] = biological target: CD123 on cells and tissues (CAL-1, GEN 2.2, PDX and primary BPDCN cells, normal pDC, monocytes, CD34+ cells, endothelial cells) (human) (UniProt P26951); test: flow cytometry on normal pDC; mean [minimum-maximum]
[2] = biological target: CD123 on cells and tissues (CAL-1, GEN 2.2, PDX and primary BPDCN cells, normal pDC, monocytes, CD34+ cells, endothelial cells) (human) (UniProt P26951); test: flow cytometry, MFIR = MFI of CD123 staining / MFI of isotype control mAb; cells: polynuclear cells, n=5; mean [min-max]
[3] = biological target: CD123 on cells and tissues (CAL-1, GEN 2.2, PDX and primary BPDCN cells, normal pDC, monocytes, CD34+ cells, endothelial cells) (human) (UniProt P26951); test: flow cytometry, MFIR = MFI of CD123 staining / MFI of isotype control mAb; cells: BPDCN, n=3; mean [min-max]
[4] = biological target: CD123 on cells and tissues (CAL-1, GEN 2.2, PDX and primary BPDCN cells, normal pDC, monocytes, CD34+ cells, endothelial cells) (human) (UniProt P26951); test: flow cytometry on monocytes; mean [minimum-maximum]
[5] = biological target: CD123 on cells and tissues (CAL-1, GEN 2.2, PDX and primary BPDCN cells, normal pDC, monocytes, CD34+ cells, endothelial cells) (human) (UniProt P26951); test: flow cytometry on BPDCN cells; mean [minimum-maximum]
[6] = biological target: CD123 on cells and tissues (CAL-1, GEN 2.2, PDX and primary BPDCN cells, normal pDC, monocytes, CD34+ cells, endothelial cells) (human) (UniProt P26951); test: flow cytometry, MFIR = MFI of CD123 staining / MFI of isotype control mAb; cells: normal pDC, n=7; mean [min-max]
[7] = biological target: CD123 on cells and tissues (CAL-1, GEN 2.2, PDX and primary BPDCN cells, normal pDC, monocytes, CD34+ cells, endothelial cells) (human) (UniProt P26951); test: flow cytometry on endothelial HMEC cell line; mean [minimum-maximum]
[8] = biological target: CD123 on cells and tissues (CAL-1, GEN 2.2, PDX and primary BPDCN cells, normal pDC, monocytes, CD34+ cells, endothelial cells) (human) (UniProt P26951); test: flow cytometry, MFIR = MFI of CD123 staining / MFI of isotype control mAb; cells: CD34 cells, n=7; mean [min-max]
[9] = biological target: CD123 on cells and tissues (CAL-1, GEN 2.2, PDX and primary BPDCN cells, normal pDC, monocytes, CD34+ cells, endothelial cells) (human) (UniProt P26951); test: flow cytometry, MFIR = MFI of CD123 staining / MFI of isotype control mAb; cells: lymphocytes, n=12; mean [min-max]
[10] = biological target: CD123 on cells and tissues (CAL-1, GEN 2.2, PDX and primary BPDCN cells, normal pDC, monocytes, CD34+ cells, endothelial cells) (human) (UniProt P26951); test: flow cytometry on CD34+ cells; mean [minimum-maximum]
[11] = biological target: CD123 on cells and tissues (CAL-1, GEN 2.2, PDX and primary BPDCN cells, normal pDC, monocytes, CD34+ cells, endothelial cells) (human) (UniProt P26951); test: flow cytometry, MFIR = MFI of CD123 staining / MFI of isotype control mAb; cells: monocytes, n=12; mean [min-max]
[12] = biological target: T1, CD123 (protein in solution in the Octet …); test: BLI (Octet), antibody on streptavidin biosensor, CD123 25 nM
Protocol: (§1) Affinity of the antibodies of the invention to CD123 is tested on streptavidin biosensors. Herein, to determine KD values seven different concentrations of CD123 were used on immobilized antibodies of the invention. The results were analyzed according to the Octet system available at FortéBio.

[13] = biological target: T1, CD123 (protein in solution in the Octet …); test: BLI (Octet), antibody on streptavidin biosensor, CD123 50 nM
Protocol: as §1

[14] = biological target: T1, CD123 (protein in solution in the Octet …); test: BLI (Octet), antibody on streptavidin biosensor, CD123 in solution
Protocol: as §1

[15] = biological target: T1, CD123 (protein in solution in the Octet …); test: BLI (Octet), antibody on streptavidin biosensor, CD123 6.25 nM
Protocol: as §1

[16] = biological target: T1, CD123 (protein in solution in the Octet …); test: BLI (Octet), antibody on streptavidin biosensor, CD123 12.5 nM
Protocol: as §1

| Molecule | MFI [1] | MFIR [2] | MFIR [3] | MFI [4] | MFI [5] | MFIR [6] | MFI [7] | MFIR [8] | MFIR [9] | MFI [10] | MFIR [11] | Response [12] | Response [13] | Kd [14] [nM] | koff [14] [s⁻¹] | kon [14] [M⁻¹ s⁻¹] | Response [15] | Response [16] |
| --- | --- | --- | --- | --- | --- | --- | --- | --- | --- | --- | --- | --- | --- | --- | --- | --- | --- | --- |
| 6H6 commercial antiCD123 antibody | 34400 | 1.5 | 42.2 | 1700 | 11700 | 210 | 1250 | 8 | 2.2 | 874 | 3.3 | – | – | – | – | – | – | – |
| 11B6E6 (antibody, V domains shown, Mouse hybridoma monoclonal antibody; also called AB3) VH: QVKLEESGPGLVAPSQSLSITCTVSGFSLTSYDISWIRQPPGKGLEWLGVIWTGGGTNYNSAFMSRLSISKDNSKSQVFLKMFSLQTDDTAIYYCVRAHGYYFAMDYWGQGTSVTVSS VL: DIVLTQSPSSLAVSAGEKVTMRCKSSQSLLNSSTRKNYLAWYQQKPGQSPKLLIYWASTRESGVPDRFTGSGSGTDFTLTISSVQAEDLAVYYCKQSYNLFTFGSGTKLEIKR | – | – | – | – | – | – | – | – | – | – | – | 0.179 | 0.316 | 9.37 | 0.000657 | 70100 | 0.0349 | 0.0895 |
| 14G12D7 (antibody, V domains shown, Mouse hybridoma monoclonal antibody; also called AB4) VH: EVQLQESGPGLVKPSQSLSLTCTVTGYSVTSDYAWNWIRQFPGNKLEWMGYIIYSGTTSYNPSLKSRISITRDTSKNQFFLQLNSVTTEDTATYYCTRGVDYWGQGTTLTVSS VL: DIVLTQSPAIMSASPGEKVTMTCRASSSVRSSYLHWYQQKSGASPKLWIYSTSNLASGVPARFSGSGSGTSYSLTISSVEAEDAATYYCLQFSGYPFTFGGGTKLEIKR | – | – | – | – | – | – | – | – | – | – | – | 0.134 | 0.221 | 8.84 | 0.000325 | 36700 | – | – |

Results, then the molecule that gave them:

| MFI [1] | MFIR [2] | MFIR [3] | MFI [4] | MFI [5] | MFIR [6] | MFI [7] | MFIR [8] | MFIR [9] | MFI [10] | MFIR [11] | Response [12] | Response [13] | Kd [14] [nM] | koff [14] [s⁻¹] | kon [14] [M⁻¹ s⁻¹] | Response [15] | Response [16] | Molecule |
| --- | --- | --- | --- | --- | --- | --- | --- | --- | --- | --- | --- | --- | --- | --- | --- | --- | --- | --- |
| – | – | – | – | – | – | – | – | – | – | – | 0.42 | 0.697 | < 0.001 | < 1e-07 | 122000 | 0.12 | 0.23 | 18B4D5 (antibody, V domains shown, Mouse hybridoma monoclonal antibody; The tie uses 'at least 85% identity' wording; also called AB1; antiCD123 B4D5) VH: EVKLQESGPGLVKPSQSLSLTCTVTGYSITSDYTWNWIRQFPGNKLEWMGYISFSGSTSYNPSLKSRLSITRDTSKNQFFLQLNSVTTEDTATYYCARGLDYWGQGTTLTVSS VL: DIVMTQSPAIMSASLGERVTMTCTASSSISSSYLYWYQQKPGSSPKLWIYSTSNLASGVPARFSGSGSGTSYSLTISSMEAEDAATYYCHQLHRSPWTFGGGTKLEIKR |
| – | – | – | – | – | – | – | – | – | – | – | 0.305 | – | 2.48 | 0.000826 | 332000 | 0.0878 | 0.155 | 15E11B7 (antibody, V domains shown, Mouse hybridoma monoclonal antibody; also called AB6) VH: EVQLEQSGPELVKPGDSVKISCKASGYSFTGYFMNWVKQSHGKSLEWIGRINPYNDYTFNNQKFKDKATLTVDKSSSTAHMELLSLTSEDSAVYYCGGGVRGAWFAFWGQGTLVTVSE VL: DIVLTQSTTSLAVSLGQRATISCRASKSVSTSGYNYMHWYQQKPGQPPKLLIYLASNLESGVPARFSGSGSGTDFTLNIHPVEEEDAATYYCQHSADLPYTFGGGTKLEIKR |
| – | – | – | – | – | – | – | – | – | – | – | – | – | < 0.001 | < 1e-07 | 326000 | 0.281 | 0.416 | 11A12C6 (antibody, V domains shown, Mouse hybridoma monoclonal antibody; also called AB5) VH: QVQLKESGPGLVAPSQSLSITCTVSGFSLTSYDINWIRQTPGKGLEWLGVIWTGGGTNYNSAFMSRLSISRDNSKSQVFLKMNSLQTDDTAIYYCVRGDGYYWYFDVWGAGTTVTVSS VL: IVMTQSPSSLAVSAGEKVTMSCKSSQSLFSSSARKNYLAWYQQRPGQSPKLLIYWASTRESGVPDRFTGSGSGTDFTLTIGSVQAEDLAVYYCKQSYSLFTFGSGTKLEIKR |
| – | – | – | – | – | – | – | – | – | – | – | 0.34 | 0.507 | 2.55 | 0.000882 | 346000 | 0.149 | 0.265 | 17F7B2 (antibody, V domains shown, Mouse hybridoma monoclonal antibody; also called AB2) VH: EVQLQQSGTVLARPGASVKMSCKASGYSFTSYWMHWVKQRPGQGLEWIGAFYPGKSDTTYNQKFKGKAKLTAVTSASTAYMELSSLTNEDSAVYYCTKGYRYDWFAYWGQGTLVTVSA VL: DVVMTQTPLSLPVSLGDQASISCRSSQSLVHSNGITYLHWYLQKPGQSPKLLIYKVSNRFSGVPDRFSGSGSGTDFTLKISRVEAEDLGVYFCSQNTHVPFTFGSGTKLEIKR |
